As a reminder, the pEC50 is the EC50 on a negative log10 scale, so that one unit is a factor of ten.

The record followed here is patent publication US20250034268A1.

pEC50: −log10 of the molar value.

For experiment [1], the target named is human BCMA expressed on the cell surface (human) (UniProt Q02223). The experiment can be described thus: flow cytometry on AMO1 cells. In general terms: In flow cytometry, cells or beads pass a laser one at a time.
Experiment [2] has the same target. Nature of the experiment: flow cytometry on H929 cells.
The target is the same in experiment [3]. Nature of the experiment: flow cytometry on L363 cells.
The target is the same in experiment [4]. Nature of the experiment: flow cytometry on U266 cells.
Experiment [5] shares this target. Nature of the experiment: flow cytometry on MM.1s cells.
For experiment [6] the target is unchanged. The experiment can be described thus: flow cytometry on RPMI8226 cells.
Experiment [7] shares this target. The experiment can be described thus: flow cytometry on hBCMA-CHO-GS cells.
Experiment [8] addresses mouse BCMA expressed on CHO GS cells (mouse) (UniProt O88472). The experiment can be described thus: flow cytometry on mBCMA-CHO-GS cells.
Experiment [9] addresses cynomolgus monkey BCMA expressed on CHO GS cells (cynomolgus monkey). The experiment can be described thus: flow cytometry on cynoBCMA-CHO-GS cells.

Chain of human BCMA expressed on the cell surface (human) (Q02223 whole entry): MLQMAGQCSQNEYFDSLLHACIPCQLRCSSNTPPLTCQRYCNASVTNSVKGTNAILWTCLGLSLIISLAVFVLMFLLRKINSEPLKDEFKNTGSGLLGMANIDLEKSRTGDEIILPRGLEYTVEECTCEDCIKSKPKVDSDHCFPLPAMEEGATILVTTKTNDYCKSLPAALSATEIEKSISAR
Chain of mouse BCMA expressed on CHO GS cells (mouse) (O88472 whole entry): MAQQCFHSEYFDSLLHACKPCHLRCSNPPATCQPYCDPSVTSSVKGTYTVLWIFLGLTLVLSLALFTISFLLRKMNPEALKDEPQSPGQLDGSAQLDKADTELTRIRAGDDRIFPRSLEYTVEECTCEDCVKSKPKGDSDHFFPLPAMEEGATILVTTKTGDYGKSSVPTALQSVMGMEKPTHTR
Chain of cynomolgus monkey BCMA expressed on CHO GS cells (cynomolgus monkey) (chain, as listed by the source): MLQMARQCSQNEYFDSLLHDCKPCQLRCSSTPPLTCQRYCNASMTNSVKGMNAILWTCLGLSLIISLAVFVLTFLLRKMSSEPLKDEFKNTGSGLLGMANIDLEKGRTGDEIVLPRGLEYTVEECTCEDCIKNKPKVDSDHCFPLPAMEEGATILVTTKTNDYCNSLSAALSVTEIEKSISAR

Turning to “GSK PG antibody (BCMA antibody clone J6M0 of GSK, P329G human IgG1)”, the pEC50 is 7.89 in [1]; 8.11 in experiment [2]; 7.98 in experiment [3]; 8.06 in [4]; 8.12 in [5]; 8.22 in experiment [6]. Besides, the figures for the pEC50 in [7], in [8] and in experiment [9] were 8.30, 6.88 and 8.00, respectively.
